Data published in the DeepSol protein solubility set.

Assay: soluble on expression in E. coli; label from the status in PepcDB or PDB records

Sequence | soluble on expression in E. coli
MIVLNCIRYLGMTDINEIGRLTLYEYDLLMTGKALAAVDESHKAHKQAWINHQVTATKLVGGKKNKKEVPVYKKFKDFFDYEEEIRKITQEIDEGYDKKGMDLLLKANL | not soluble
MGSDKIHHHHHHMKNHTYKEIKNIYGKISPFEFKDKLIDIAKYTAKENNRELLDAGRGNPNWTCSTAREAFFTFGHFAITETRSNWDLGHLAGMPQKKGIKERFFKFINENIDMPGAYLARDIINFGINELGFDGDEFVHELADGIIGDNYPLPDRMLPHMEKIVHDYLVQEMKYDISGKYGDVEIFAVEGATAAMCYIFDSLMANELLKKGDTIALMTPIFTPYLEIPNLPRYDFKVVNINANEVDEKGAHTWQYTKKELEKLRDKSIKALFVVNPNNPASIAMDETSCNNLIDVIENYNKDLMIISDDVYGTFVEDFSSLMSKLPYNTVGVYSYSKYFGVTGWRLGTFALHKKNVFDKKINDLTGELKKSVDKRYSDMSLNPSSLSFMERVVADSRLVALNHTAGLSTPQQVQMAFFSAFALIDKVDAYKKLNMSICHRRQKLLFEALELPINENKNNAAYYTQFDIEEWAKLNYGEDLFKFISKTASPVDVLYKLANDYSVVLLSGNGFYGPEWSIRISLANLYDEAYTKIGKAIREILNGYIVEWQKIKK | not soluble
MGSDKIHHHHHHMPNTIHQDEGRPIVNSNDHDSPAESRASGVLNLTHLRTLVAVVQEGHLTRAAERLRISQPAASHHLRSLEQQFGLPLFTRTPQGVVPTAAGLQLSEQAARLLASSLELLSTASELRGSASGRIAIGTIEDPSVHAALPSLIKWFHEHYPLIELSIESRNSSSIRQGILTGEINAGFYVSCTNEANLREYEIGQRELVVVAPQSWRERVATATWPELAKLPWVMTTTGSAHSEITAQLFRSHNITIRPALEVNTERLLRAMVSQGVGLGFTRREFAEAEQARGAFFIVPISVHRTTMHFAYARSAETDPLIQILSRGLATVLPVAERLIPSTAKPAEK | not soluble
MRFGPVALSAAKGALLAHSRKAPGWTLAKGTRLGDEDLALLAGLGVAEVVVARLDPGDVHEDEAAARVAAVLLGPGLTLGDAFTGRANLFAGGDGLLRLDAARFDRLNALCEGLTVATLPPFAKVAPRQMVATVKIIPFALPETVIAQAEALLAGAPALEVALFRPMRLALIQTHLPETAGKMLDKTASVTAGRMAALGGGLTVDRRCPHDTRALAACLSAVSAEKDVDLIAVAGASAIVDRGDVIPAAITRAGGRVDHLGMPVDPGNLILLGELAGRVVLGLPGCARSPAINGFDWVLDRLCAGLAVGGADLMAMGVGGLLKDTTARTQPRMAAVTHPSPAAPPRLGALVLAAGLSRRMGGVNKLLLDWRGKPLVAHAVDTVLAAGPAAVAVVIGHQGKAVRAALEGRAIALVENPDPGRGLGSSLKRGLAALPADLDGVIVCLGDMPGLTPRLLSRLIAAFAPLEGRAICLPTFGGRRGNPVLFAARFLPEMMEITGDIGARPVIAAHPDQTCEVAMDALAEGASVLMDVDTPEAAKALLSAGGLEHHHHHH | not soluble
MMGTAWPPPELADVFAQQDIWSAWYAGTPEGLTDAYLNAPNDRPAARRKGLLARLGRWFWGQPTPMGERPSKLHVPLAGAIAAVSANLLFGAPLNLTVDDAATQERLDQLADDTTYAVLREAAEMSAALGGVYLRVVWDQSIQDKPWLVAASPDIAVPEWKWGRLSAVTFWNVIREDANTVVRQLERHEPGWIRHSVWIGSANELGVQMALTDFPETAGLADLVIDGDGIPTGTPKLTAQYIPNLKPNKLWRHLPAAANLGRSDFSGVEALMDALDEAYSDWMRDLRTGKARLLVGTEVLENLGKGQGAHFDIDRELFAPLNLEPGEDKGSVIEQVQFNIRTEEHRALCADLAERIILGAGYSLQTFGVTSEGSGNPTATEIAARERQSLTTRANKTSYWRPALAHLFGVLLEIDRTVFRSQVVPQIPDVEFPDVVTPDPGETARQLNDLNTAGAISTYEKVRRLNPDWRDEQVLEEVARIKADQAEAKPQPTHPARAQEPAGQPEKSPEGSQVNEDVSEPLVAR | not soluble
GSNSLMERIHEQIKKGELALFYLQEQINHFEEKPTKEMKDKIVAEMDTIIAMIDGVRGVLDRLMQRKDLDIFEQYNLEMAKKSGDILERDLKKEEARVKKIEV | soluble
MKKRQSCRSFDYSKPVSKEDLISILEAGRLSPSACNSQPYEVFVAQGEKAKIIADAKMGSFNKFIDDCNTFLVIAEDNYSLPAKIGSLIKKVDFKAIDIGILTANLVNAASALNLETCILGVFDEKRIQKLIERKKRIRLVIALGYPKEGYPLREKTRKDFDDNMHFLA | not soluble
MGSDKIHHHHHHMVSLFKIIQVGDHGEVPGAEVFWMKDFDKWYRLSFYSFLIKTENDQYVLINTGLPDDLSLRNKFLKEWAKSDRCKFQHVEKIENALAKLNITTDDISHIIITPVQDYTIGRIHMFRKAKLYFSKKGWYEDVVTPSPSPFLNRDIYLPRLTREYLFDEAWNRIVLVENQEVIKGIEVKWTGCHHRSSMLVKFNFDKKRWCISDSAFVMNNFEQNIPIGIAEDIYECLNAYDYMRRECDVVIPSYDPENVNRFKEYILK | not soluble
MGSDKIHHHHHHMSKILSIIIPTYNAEKFLNKGLSSFLVCRDTDAQTAQHNCKMATEGRFEEIDIDKAILDKLEVIVVNDGTPDKSVEVAQKFVDWYPDTFVIVNKTNGGHGSAINTGVEHVRGKYLKVVDADDWVDTLALKKLITTLQVLEAAQEKQDTRVMDAMLMSYTTYDLQKAAKGDIPYEEHLVVPGTKHDKSVDIQNLGGPYSSQVIAKHFDDVYWGLTFHGILYNTAFYRGLAHKLAEGIFYEDQEYAAVPMAYADTIYVYDEQLYQYRIGDVSQSISMESSLKRLSHYETVIRTLIAEGGNSEEFAPGGKQIWGIKTAKFIDDYYQLCLIKNPDKKMLRDRMEKFTSEIKSADGYIYGLIEKNYKVFRMLNKLHMNEKVYQKVFIPMVHLIRK | not soluble
MIPISVLVTNAGTVSFHIKGEYNRDRPSKFSDVFRPVVTWNLTRKCNLKCLHCYINASPEGEDGLTTEEALGLIDEMAEMKIPLIIMSGGEPLMRRDFFELASYARSKGIKLALSTNGTLISESVAKRLKELDFSYVGISLDSYDPEFHDKFRGLNGAFNMTVKGIGNAINVGLNVGLRFTITAKNIHQVDEYMKLALKLGVKRITFYHLSASGRGRELREWMYTLEEYVSFINKMIDYAIKLSGKIEIETTLGQFDGVYIAKKLARNEEELEKYLKFVENSGGCGRKMISIYPNGDVYPCQFIDFYKLGNVREKPLKEIIKNIPDLFINTDKYLKGRYCDKCEYKSACKGGDRARAYYWNEDIYGDDPLCPLKTLHI | not soluble
